Reference: US20240327519A1 (Genentech, published 2024)

Key:
[1] = target: PD-1 (programmed cell death protein 1), as parameterised in the receptor occupancy model (UniProt Q15116 25-167, limits assumed); test: assay not stated; parameter of the mPBPK tumor receptor occupancy model
[2] = target: T1, LAG3 (lymphocyte activation gene-3), as parameterised in the receptor occupancy model (UniProt P18627 23-450, limits assumed); test: assay not stated; parameter of the mPBPK tumor receptor occupancy model; input parameter of the PK/receptor occupancy model; assay not stated
T1 construct: also called CD223
T1 sequence (looked up): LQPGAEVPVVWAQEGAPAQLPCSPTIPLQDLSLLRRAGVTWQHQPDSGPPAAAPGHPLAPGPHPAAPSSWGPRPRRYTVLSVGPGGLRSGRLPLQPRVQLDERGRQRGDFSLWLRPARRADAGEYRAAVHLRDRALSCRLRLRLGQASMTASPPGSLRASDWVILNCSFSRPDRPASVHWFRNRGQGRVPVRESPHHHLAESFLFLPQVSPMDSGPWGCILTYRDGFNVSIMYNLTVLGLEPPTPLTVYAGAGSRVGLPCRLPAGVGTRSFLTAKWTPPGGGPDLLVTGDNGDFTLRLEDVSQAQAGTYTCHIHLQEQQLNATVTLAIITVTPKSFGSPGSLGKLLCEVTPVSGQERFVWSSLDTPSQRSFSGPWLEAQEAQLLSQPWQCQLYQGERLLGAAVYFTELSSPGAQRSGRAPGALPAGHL

Chain of PD-1 (programmed cell death protein 1), as parameterised in the receptor occupancy model (Q15116 25-167 limits assumed): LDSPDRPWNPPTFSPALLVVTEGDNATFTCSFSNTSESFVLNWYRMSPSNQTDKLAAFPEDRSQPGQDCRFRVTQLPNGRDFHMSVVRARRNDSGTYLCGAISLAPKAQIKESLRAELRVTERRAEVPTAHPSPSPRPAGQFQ

Kd [2]: 780 pM
B1: RO7247669 (PD1-LAG3), anti-PD-1/LAG3 bispecific antibody (bispecific antibody, human IgG1, kappa, L234A L235A)
heavy 1: not shown
light 1: EVQLLESGGGLVQPGGSLRLSCAASGFSFSSYTMSWVRQAPGKGLEWVATISGGGRDIYYPDSVKGRFTISRDNSKNTLYLQMNSLRAEDTAVYYCVLLTGRVYFALDSWGQGTLVTVSSASVAAPSVFIFPPSDEQLKSGTASVVCLLNNFYPREAKVQWKVDNALQSGNSQESVTEQDSKDSTYSLSSTLTLSKADYEKHKVYACEVTHQGLSSPVTKSFNRGEC
heavy 2: EVQLLESGGGLVQPGGSLRLSCAASGFIFDDYTMNWVRQAPGKGLEWVAVISWDGGGTYYTDSVKGRFTISRDDFKNTLYLQMNSLRAEDTAVYYCAKGLTDTTLYGSDYWGQGTLVTVSSASTKGPSVFPLAPSSKSTSGGTAALGCLVEDYFPEPVTVSWNSGALTSGVHTFPAVLQSSGLYSLSSVVTVPSSSLGTQTYICNVNHKPSNTKVDEKVEPKSCDKTHTCPPCPAPEAAGGPSVFLFPPKPKDTLMISRTPEVTCVVVDVSHEDPEVKFNWYVDGVEVHNAKTKPREEQYNSTYRVVSVLTVLHQDWLNGKEYKCKVSNKALGAPIEKTISKAKGQPREPQVCTLPPSRDELTKNQVSLSCAVKGFYPSDIAVEWESNGQPENNYKTTPPVLDSDGSFFLVSKLTVDKSRWQQGNVFSCSVMHEALHNHYTQKSLSLSPGK
light 2: not shown
notes: also called PD-1 BsAb; bsAb RO7247669
Kd [1]: 250 pM
